According to publication PMC5715787, “Structural basis for antibody recognition of the NANP repeats in Plasmodium falciparum circumsporozoite protein” (Proceedings of the National Academy of Sciences of the …, 2017):

Target: T1, Ac-…-NH2 peptide (P. falciparum)
T1 sequence (peptide, N-terminal acetyl group; C-terminal NH2 group (amide)): NPNVDPNANPNV
Test: ITC; MicroCal Auto-iTC200; triplicate (or duplicate) experiments; details in SI

Kd: 12.1 µM | dH: -9.66 kcal/mol | stoichiometry N: 1.72
B1: Fab317 (Fab, V domains shown)
VH: QMQLVESGGGVVQPGRSLRLSCTASGFTFSTYAMHWVRQSPGQGLQWVAVISYHSTNKYYEDSVRGRFTISRDNSKNTLYLQMNSLRAEDTAVYYCARDGYSSSFFDFWGQGTLVTVSS
VL: DIQMTQSPSTLSASVGDRVAITCRASQSISRWLAWYQQQPGKAPKLLMSGASVLESGVPSRFSGSGSGTEFTLTISSLQPDDFATYYCQHYNSYFVTFGQGTKVEIK
